According to US10093741 (FUSION PHARMACEUTICALS, dated 2018):

Key:
[1] = target: T1, insulin-like growth factor-1 receptor (IGF-1R) (human, UniProt P08069 31-1367); test: cell-based or functional assay
[2] = target: T1, insulin-like growth factor-1 receptor …; test: cell-based or functional assay; remark: listed apart in the source
[3] = target: T1, insulin-like growth factor-1 receptor …; test: saturation radioligand binding on IGF-1R expressing A431 cells, 4 °C, specific binding fitted to single-site model
Protocol: The purpose of this assay was to ensure that these new radioconjugates maintained binding characteristics consistent with the native antibody in an IGF-1R expressing A431 cell line. Twenty-four hours prior to the start of the experiment, 1.5×10^5 A431 cells were seeded in 48-well microplates in 500 μl supplemented medium. The radioconjugate was diluted with binding buffer (PBS+0.5% BSA) to a range of concentrations from 0.08 nM to 40 nM; final assay concentration 0.04 to 20 nM. At the start of the assay, the media is aspirated, discarded and 500 μl of serum-free DMEM was added to each well. The plates were incubated at 37° C. for 1 hour. Following incubation, media was aspirated from each well and discarded. The cells were washed and 100 μl of binding buffer (total binding assay) or, for non-specific binding assay, 4 μM cold-antibody was added to designated wells. Plates were incubated at 4° C. for 1 hour with mild shaking. Following the blocking step, 100 μl of radioimmunoconjugate was added to each well. The plates were then incubated at 4° C. for 2 hours. Following incubation, the contents of each well was aspirated and discarded. The cells were washed twice with PBS and were then lysed with 1% Triton-X-100. The lysates were transferred to counting tubes and run with radioconjugate standards on the Wizard 1470 gamma counter to determine the radioactivity content (in counts per minute (CPM)) for each lysate. The remaining lysate from each well (25 μl) was transferred to a 96-well plate, and the protein content of each lysate determined using a standard protein quantification assay. Total, non-specific and specific ligand binding determinations, mass of bound conjugate in each lysate were calculated by converting lysate CPM to fmol bound using the specific activity of the conjugate standards and then normalizing the fmol bound to the protein content of each lysate (in milligrams). Specific binding was determined by subtracting the non-specific binding from total binding. […]

[4] = target: T1, insulin-like growth factor-1 receptor …; test: saturation radioligand binding on Du-145 cells (prostate)
Protocol: (§1) Twenty-four hours prior to the start of the experiment, 1.5 ×10^5 cells were seeded in 48-well microplates in 500 µl supplemented medium. The radiolabeled conjugate was diluted with binding buffer (PBS+0.5% BSA) to a range of concentrations from 0.08 nM to 40 nM; final assay concentration 0.04 to 20 nM. At the start of the assay, the media is aspirated, discarded and 500 µl of serum-free DMEM was added to each well. The plates were incubated at 37° C. for 1 h. Following incubation, media was aspirated from each well and discarded. The cells were washed and 100 µl of binding buffer (total binding) or 4 µM cold-antibody (non-specific binding) added to designated wells. […] The lysates were transferred to counting tubes and run with labeled conjugate standards on the Wizard 1470 gamma counter to determine the radioactivity content (in counts per minute (CPM)) for each lysate. The remaining lysate from each well (25 µl) was transferred to a 96-well plate, and the protein content of each lysate determined using a standard protein quantification assay. Total, non-specific and specific ligand binding determinations, mass of bound conjugate in each lysate were calculated by converting lysate CPM to fmol bound using the specific activity of the conjugate standards and then normalizing the fmol bound to the protein content of each lysate (in milligrams). […]

[5] = target: T1, insulin-like growth factor-1 receptor …; test: saturation radioligand binding on MiaPaca-II cells (pancreatic)
Protocol: as §1

[6] = target: T1, insulin-like growth factor-1 receptor …; test: saturation radioligand binding on A549 cells (NSCLC)
Protocol: as §1

[7] = target: T1, insulin-like growth factor-1 receptor …; test: saturation radioligand binding on LnCaP cells (prostate)
Protocol: as §1

[8] = target: T1, insulin-like growth factor-1 receptor …; test: saturation radioligand binding on A431 cells (epidermoid carcinoma)
Protocol: as §1

[9] = target: T1, insulin-like growth factor-1 receptor …; test: saturation radioligand binding on BxPC3 cells (pancreatic)
Protocol: as §1

[10] = target: T1, insulin-like growth factor-1 receptor …; test: saturation radioligand binding on H226 cells (NSCLC)
Protocol: as §1

[11] = target: T1, insulin-like growth factor-1 receptor …; test: saturation radioligand binding on PC-3 cells (prostate)
Protocol: as §1

[12] = target: T1, insulin-like growth factor-1 receptor …; test: saturation radioligand binding on A431 epidermoid carcinoma cells
Protocol: The plates were incubated at 37° C. for 1 h. Following incubation, media was aspirated from each well and discarded. The cells were washed and 100 µl of binding buffer (total binding) or 4 µM cold-antibody (non-specific binding) added to designated wells. Plates were incubated at 4° C. for 1 h with mild shaking. Following the blocking step, 100 µl of labeled conjugate was added to each well. The plates were then incubated at 4° C. for 2 h. Following incubation, the contents of each well was aspirated and discarded. The cells were washed twice with PBS and were then lysed with 1% Triton-X-100. The lysates were transferred to counting tubes and run with labeled conjugate standards on the Wizard 1470 gamma counter to determine the radioactivity content (in counts per minute (CPM)) for each lysate. The remaining lysate from each well (25 µl) was transferred to a 96-well plate, and the protein content of each lysate determined using a standard protein quantification assay. Total, non-specific and specific ligand binding determinations, mass of bound conjugate in each lysate were calculated by converting lysate CPM to fmol bound using the specific activity of the conjugate standards and then normalizing the fmol bound to the protein content of each lysate (in milligrams). Specific binding was determined by subtracting the non-specific binding from total binding. […]

T1 sequence (P08069 31-1367): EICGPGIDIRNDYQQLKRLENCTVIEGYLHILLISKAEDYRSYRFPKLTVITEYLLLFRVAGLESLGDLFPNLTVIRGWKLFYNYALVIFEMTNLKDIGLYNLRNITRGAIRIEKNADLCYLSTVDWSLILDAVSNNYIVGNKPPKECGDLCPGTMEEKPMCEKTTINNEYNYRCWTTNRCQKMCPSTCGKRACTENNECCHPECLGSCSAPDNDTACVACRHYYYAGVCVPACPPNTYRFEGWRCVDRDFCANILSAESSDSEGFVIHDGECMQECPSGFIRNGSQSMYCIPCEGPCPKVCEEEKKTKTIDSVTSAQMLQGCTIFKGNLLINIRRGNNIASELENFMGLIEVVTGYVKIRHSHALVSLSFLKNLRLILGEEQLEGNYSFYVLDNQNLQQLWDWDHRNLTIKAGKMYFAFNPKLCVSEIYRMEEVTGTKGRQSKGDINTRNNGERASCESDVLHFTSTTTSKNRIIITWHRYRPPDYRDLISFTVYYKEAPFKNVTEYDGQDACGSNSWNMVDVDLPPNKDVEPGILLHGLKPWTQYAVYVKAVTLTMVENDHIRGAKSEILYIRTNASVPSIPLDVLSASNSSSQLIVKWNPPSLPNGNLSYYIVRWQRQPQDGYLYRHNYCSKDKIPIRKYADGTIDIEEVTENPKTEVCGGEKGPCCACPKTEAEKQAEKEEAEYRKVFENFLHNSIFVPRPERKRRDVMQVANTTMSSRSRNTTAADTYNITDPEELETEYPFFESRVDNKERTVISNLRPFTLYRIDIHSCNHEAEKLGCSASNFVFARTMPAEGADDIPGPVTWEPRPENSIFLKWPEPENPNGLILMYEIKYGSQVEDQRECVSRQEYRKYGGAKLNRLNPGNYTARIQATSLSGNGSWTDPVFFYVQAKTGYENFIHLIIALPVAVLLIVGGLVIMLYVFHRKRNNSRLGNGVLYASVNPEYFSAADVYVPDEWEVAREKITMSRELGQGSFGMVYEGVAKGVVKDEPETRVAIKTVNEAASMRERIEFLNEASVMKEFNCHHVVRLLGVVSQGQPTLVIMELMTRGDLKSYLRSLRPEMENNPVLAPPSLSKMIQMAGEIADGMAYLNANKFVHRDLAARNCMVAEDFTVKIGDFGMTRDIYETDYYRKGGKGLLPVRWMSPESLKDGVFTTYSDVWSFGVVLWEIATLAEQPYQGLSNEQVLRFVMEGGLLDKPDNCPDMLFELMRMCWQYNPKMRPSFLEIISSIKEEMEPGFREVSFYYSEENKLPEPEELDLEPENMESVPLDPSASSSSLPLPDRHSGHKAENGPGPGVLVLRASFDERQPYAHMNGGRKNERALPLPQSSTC

B1: HuMIGF-1R (AVE1642) (antibody, human IgG1, kappa)
light: DVVMTQTPLSLPVSLGDPASISCRSSQSIVHSNVNTYLEWYLQKPGQSPRLLIYKVSNRFSGVPDRFSGSGAGTDFTLRISRVEAEDLGIYYCFQGSHVPPTFGGGTKLEIKRTVAAPSVFIFPPSDEQLKSGTASVVCLLNNFYPREAKVQWKVDNALQSGNSQESVTEQDSKDSTYSLSSTLTLSKADYEKHKVYACEVTHQGLSSPVTKSFNRGEC
heavy: not shown
Compound Potency (IC50; µg/mL): inhibition of IGF-1 ligand stimulated autophosphorylation of IGF-1R in A431 cells, phospho-IGF-1R ELISA [1]: 0.04 µg/mL | Conjugate Potency (IC50; µg/mL): inhibition of IGF-1 ligand stimulated autophosphorylation of IGF-1R in A431 cells, phospho-IGF-1R ELISA; degree of substitution 0 DOTA/mAb (native antibody) [2]: 0.04 µg/mL

B2: [^177Lu]-Compound A-HuMIGF-1R (antibody)
light: B1 light
heavy: not shown
modifications: Compound A (DOTA-GA anhydride) chelate conjugated to the antibody, sites not stated; chelate loaded with 177Lu
notes: also called Commercial Standard
Kd [3]: 2.9 nM

B3: [^177Lu]-Compound C-HuMIGF-1R (antibody)
light: B1 light
heavy: not shown
modifications: Compound C (DOTA-GA with PEG3 linker, TFP ester) conjugated to the antibody, sites not stated; chelate loaded with 177Lu
Kd [3]: 2.2 nM | Kd [4]: 3 nM | Compound Potency (IC50; µg/mL): inhibition of IGF-1 ligand stimulated autophosphorylation of IGF-1R in A431 cells, phospho-IGF-1R ELISA [1]: 0.04 µg/mL | Kd [5]: 1.9 nM | Kd [6]: 0.7 nM | Kd [7]: 1.6 nM | Kd [8]: 2.2 nM | Kd [9]: 2.9 nM | Kd [10]: 2.3 nM | Kd [11]: 1.7 nM

B4: [^177Lu]-Compound B-HuMIGF-1R (antibody)
light: B1 light
heavy: not shown
modifications: Compound B (DOTA-GA with undecanoyl linker, TFP ester) conjugated to the antibody, sites not stated; chelate loaded with 177Lu
Kd [3]: 2 nM

B5: [^111In]-Compound C-HuMIGF-1R (antibody)
light: B1 light
heavy: not shown
modifications: Compound C (DOTA-GA with PEG3 linker, TFP ester) conjugated to the antibody, sites not stated; chelate loaded with 111In
Kd [12]: 6.9 nM | Compound Potency (IC50; µg/mL): inhibition of IGF-1 ligand stimulated autophosphorylation of IGF-1R in A431 cells, phospho-IGF-1R ELISA [1]: 0.19 µg/mL
